This experiment has as its target ThBP24k (recombinant, no tag named) (Magnaporthe oryzae, UniProt G4NG01). In words: BLI. Conditions: both partners purified.

B1: OsPR5-His (natural protein)
chain: ATFTITNRCSFTVWPAATPVGGGVQLSPGQTWTINVPAGTSSGRVWGRTGCSFDGSGRGSCATGDCAGALSCTLSGQKPLTLAEFTIGGSQDFYDLSVIDGYNVAMSFSCSSGVTVTCRDSRCPDAYLFPEDNTKTHACSGNSNYQVVFCP
By Kd is commonly meant a measure of binding affinity in units of concentration. As to B1, the Kd is 2.41 nM.

The record behind these values is article doi:10.1101/2025.07.03.663104 (bioRxiv, 2025).
